Reference: the supplement of paper PMC9732359
± gives the uncertainty stated by the source.

Assay: protein stability index of a GFP-peptide fusion (yeast GPS) (PSI 1-4); higher = more stable; sorted into four equal gates, so the index is relative within each strain
Summary of the method: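 Tiled 17-residue peptides from yeast proteins were fused downstream of GFP on a plasmid that also expresses Cherry, and the pooled library was carried in yeast. Mid-log cultures grown in leucine-free medium were sorted into four equal gates by GFP/Cherry fluorescence ratio. Plasmids from each gate were PCR-amplified and Illumina-sequenced, and reads were assigned to strains by barcodes. Each peptide's protein stability index is the sum, over gates, of the gate's read frequency multiplied by its gate number.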

Sequence	protein stability index (doa10∆)	protein stability index (pdr5∆)	protein stability index (san1∆)	protein stability index (ubr1∆)
SSNISPEQVYSLLLTNV [ARP7]	2.27 ± 0.035	2.48 ± 0.036	2.43 ± 0.04	2.46 ± 0.033
IASDGSECIVSIKSKVV [RRP42]	3.1 ± 0.081	3.12 ± 0.075	2.7 ± 0.2	3.12 ± 0.19
SKMGAPWCVKPEYLAMY [ITC1]	2.92 ± 0.057	3.23 ± 0.048	3.1 ± 0.043	3.11 ± 0.058
LAPNMQLNGNETFSTSA [SNF2]	3.15 ± 0.14	3.17 ± 0.11	3.29 ± 0.068	2.92 ± 0.096
ILKKSLMTSHTKGDTSK [RTT102]	2.6 ± 0.11	3.05 ± 0.085	2.81 ± 0.085	3.05 ± 0.13
RLAPLIKEENDMENMAD [ARP7]	3.75 ± 0.23	3.65 ± 0.15	2.88 ± 0.14	–
RSQDQENPAFLPGTNNN [SEC65]	2.79 ± 0.082	2.75 ± 0.079	2.19 ± 0.063	2.8 ± 0.064
RYLTLLSNEFTATNSKG [ECM29]	2.89 ± 0.073	2.76 ± 0.064	2.61 ± 0.088	2.83 ± 0.052
LYEKDIVPSMTHLEIEP [RET1]	2.68 ± 0.098	2.65 ± 0.089	2.73 ± 0.09	2.85 ± 0.053
LYKIFSYALSMEKDKLK [SNU114]	1.84 ± 0.097	1.33 ± 0.052	1.63 ± 0.17	1.65 ± 0.049
LATDVTTLNEMFRYKTN [PUP3]	1.85 ± 0.14	2.72 ± 0.11	1.91 ± 0.077	2.53 ± 0.1
TIWCVCDSYLDADKELS [BRR2]	2.39 ± 0.059	2.44 ± 0.07	2.92 ± 0.057	2.75 ± 0.072
SDEERDDEDDEHNPTIV [AAR2]	3.53 ± 0.086	3.32 ± 0.089	3.09 ± 0.071	3.31 ± 0.11
LENMPHPWEQAKEVKVL [PRP8]	2.7 ± 0.23	2.9 ± 0.17	3.09 ± 0.1	2.94 ± 0.093
FDIIEESFKGLQPFWFR [ECM29]	2.63 ± 0.11	2.58 ± 0.15	2.35 ± 0.17	2.21 ± 0.11
QNIAQSSNQSAPVETKK [HRT1]	3.01 ± 0.11	2.91 ± 0.14	3.47 ± 0.15	3.16 ± 0.067
SAASKKKKNKNKGKKKR [SRP21]	3.22 ± 0.081	3.04 ± 0.1	3.11 ± 0.056	3.22 ± 0.056
MESEEVPLTKRYQHLEK [PCI8]	2.85 ± 0.075	3.07 ± 0.067	2.92 ± 0.048	3.14 ± 0.065
NHNQFECKGCDNKIDIY [RPB2]	3.06 ± 0.044	3.19 ± 0.047	3.06 ± 0.034	3.1 ± 0.037
KKINRRNETSVDEEDEN [YCG1]	3.41 ± 0.1	3.38 ± 0.098	2.79 ± 0.14	3.31 ± 0.12

Sequence	protein stability index (doa10∆)	protein stability index (pdr5∆)	protein stability index (san1∆)	protein stability index (ubr1∆)
KKAAEEAGVTDVKVSIS [FAS2]	1.44 ± 0.09	1.66 ± 0.08	2.23 ± 0.24	1.18 ± 0.1
LEAVNSMIEKGGDWERR [RPN7]	3.02 ± 0.1	3.1 ± 0.093	2.8 ± 0.08	2.87 ± 0.06
SQTNNSFLSGVKSLLSE [SIR4]	2.98 ± 0.069	3.26 ± 0.067	3.14 ± 0.046	3.1 ± 0.056
VSSKCNDIHLRFMRFLA [ECM29]	2.23 ± 0.083	2.38 ± 0.06	2.74 ± 0.18	2.08 ± 0.08
ARNLIEDEDDGESEKSS [RPC53]	3.06 ± 0.12	3.68 ± 0.18	–	3.29 ± 0.11
FTAEGIVPDLIINPHAI [RPB2]	2.24 ± 0.069	2.36 ± 0.081	2.08 ± 0.081	2.67 ± 0.082
SANERLFGNRPSMMAPL [YML031W/NDC1]	2.96 ± 0.21	2.63 ± 0.13	2.62 ± 0.12	3.03 ± 0.089
NSMDISMFSGLDSTGFD [MED2]	2.83 ± 0.059	3.06 ± 0.055	3.21 ± 0.041	2.83 ± 0.049
ALREMRKSDQQDVLKGS [POP1]	3.36 ± 0.17	3.56 ± 0.16	3.43 ± 0.14	3.22 ± 0.11
SPDSTVNRSVVVSAVGE [YAR002W/NUP60]	3.11 ± 0.084	2.91 ± 0.088	3.28 ± 0.063	2.79 ± 0.061
IKVLLRQNRRPELGDKF [RET1]	3.15 ± 0.25	3.49 ± 0.18	3.36 ± 0.09	3.41 ± 0.092
ELISFKERTKSLEHELK [YIL149C/MLP2]	2.24 ± 0.062	2.64 ± 0.064	2.78 ± 0.073	2.78 ± 0.083
PVDHPHGGGNHQHIGKA [RPL2A]	3.11 ± 0.11	3.31 ± 0.085	3.09 ± 0.051	3.22 ± 0.071
DANLLEEGETSRPLKKV [SWI3]	3.23 ± 0.12	3.45 ± 0.16	2.95 ± 0.082	2.99 ± 0.15
AMVEKYAPDVVRSLENL [RRP42]	2.59 ± 0.13	2.81 ± 0.067	2.65 ± 0.052	3.14 ± 0.038
TFTKKCLENARSQISEK [SIR4]	3.2 ± 0.063	3.12 ± 0.057	3.15 ± 0.05	3.07 ± 0.041
KFPATNVTTILDEIFSG [ECM29]	2.54 ± 0.078	2.93 ± 0.066	2.28 ± 0.06	2.7 ± 0.063
SKQLSLEEKKKRPNNKT [IRR1]	2.5 ± 0.11	2.59 ± 0.094	2.21 ± 0.15	2.79 ± 0.096
TIIFIDELDAIGTKRFD [RPT5]	2.75 ± 0.069	2.33 ± 0.045	2.5 ± 0.075	2.42 ± 0.059
LIEKVDDTAANNGDKDH [YIL149C/MLP2]	3.09 ± 0.099	3.25 ± 0.084	2.99 ± 0.086	3.09 ± 0.065
